Laboratory results taken from patent publication US20070059756A1, “Immunointeractive molecules and their uses in treating subjects suffering from Hev b 5 allergies” (priority 1999, published 2007).

Key:
[1] = test system: latex specific T cell lines; experiment: Oligoclonal T cell proliferation assay (3H-thymidine incorporation); format: cell-based, human; conditions: for Oligoclonal proliferative response: antigen 10 μg/ml, 4 day cultures
Method: (§1) Latex specific T cell lines were isolated using our well established methods for the generation of allergen specific oligoclonal T cell populations (O'Hehir et al., 1987). An initial primary culture was performed for each patient to determine the optimal concentration of LAL for stimulation. For this, peripheral blood mononuclear cells (PBMC) separated from heparinised venous blood by density centrifugation (2×10^5/well) were stimulated with LAL over a concentration range 0.03 to 100 μg/ml, with control cultures of PBMC alone or stimulated with tetanus toxoid. All cultures were maintained in complete medium (RPMI-1640, Gibco Life Technologies supplemented with 2 mmol/L L-glutamine, 100 IU/ml penicillin-streptomycin and 5% screened, heat inactivated human AB serum [Sigma]). […] Therefore, to generate T cell lines, PBMC (2.5×10^6/well) were stimulated for 1 week with LAL at a concentration of 20 μg/ml in 24-well tissue culture plates (Costar, USA). After 7 days, lymphoblasts (1×10^6/well) were restimulated for one week with LAL at a concentration of 20 μg/ml in the presence of an equal number of irradiated (3000 rad) autologous PBMC as antigen presenting cells (APC). On days 2 and 4, cultures were supplemented with Lymphocult-T (5% v/v; Biotest Folex, Germany) and fresh medium. At the end of the second week, lymphoblasts were restimulated for one week with rhev b 5/MBP at a concentration of 20 μg/ml as described above. Oligoclonal T cells were recovered, washed and tested in proliferation and cytokine assays (as described below) either fresh or after cryopreservation in liquid nitrogen. We have previously shown that CD4^+ T cells are preferentially expanded in these cultures.
Oligoclonal T cell blasts (5×10^4) were incubated in 96-well round bottom plates (Linbro, ICN Biomedicals, USA) in triplicate with equal numbers of irradiated APC in the presence of LAL at concentrations ranging from 0.03-100 μg/ml, rHev b 5/MBP (10 and 20 μg/ml), MBP (10 and 20 μg/ml), overlapping peptides of the Hev b 5 sequence (10 and 30 μg/ml), Lymphocult-T (10 IU/ml) or PHA (3 μg/ml). Cultures of T cells and APC in the absence of antigen, T cells alone and APC alone in the absence of antigen were included as controls. After 72 hours cultures were pulsed with 1 μCi of ^3H-thymidine (^3HTdR; Du Pont, NEN) and harvested 12-16 hours later. Proliferation as correlated with ^3HTdR incorporation was measured by liquid scintillation spectroscopy. Results are expressed as mean counts per minute (cpm) for triplicate cultures with standard deviation (SD; ±20% for all experiments).

PBMC = experiment: Primary culture PBMC proliferation (polyclonal response); format: cell-based, human; conditions: primary cultures of PBMC
Method: as §1, with “At the end of the second week, lymphoblasts were restimulated for one week with rhev b 5/MBP at a concentration of 20 μg/ml as described above. Oligoclonal T cells were recovered, washed and tested in proliferation and cytokine assays (as described below) either fresh or after cryopreservation in liquid nitrogen. We have previously shown that CD4^+ T cells are preferentially expanded in these cultures.” left out

[2] = test system: house dust mite specific three-week T cell line; format: cell-based
Method: Mitogenicity of latex antigens was excluded by testing the ability of LAL, rHev b 5/mBP and Hev b 5 peptides to stimulate a house dust mite specific three-week T cell line. No reactivity to latex allergens was observed (data not shown). Toxicity was assessed by coculturing the same antigens with house dust mite specific T cells in the presence of Lymphocult-T at 10 IU/ml.

serum IgE = experiment: Dot immunoblot of patient serum IgE reactivity; format: binding, human; conditions: sera of latex allergic patients 1-6
Method: Patient serum IgE reactivity to latex allergens was analysed by dot immunoblots. LAL (25 μg), rHev b 5/MBP (7 μg) and MBP (4.5 μg) were applied side by side on a nitrocellulose membrane (Schleichner and Schuell, Germany) in a 5 μl volume and allowed to soak in. The amount of MBP was estimated to be equivalent to that in the rHev b 5/MBP aliquot. The membrane was then blocked, incubated in patient sera and IgE binding detected according to our established protocols (Suphioglu et al., 1993). Briefly, the blots were blocked in 10% w/v skim milk powder in PBS and washed once in PBS containing 0.2% v/v Tween 20 and twice in PBS alone. Blots were then incubated in patients' sera (diluted 1:4 in PBS/0.5% BSA) overnight at room temperature with shaking before washing as described above. Finally, IgE antibody binding was detected by incubation in rabbit anti-human IgE (Dako, Denmark) followed by horse radish peroxidase-labelled anti-rabbit antibodies (Promega, USA), washing in between, and developing in the substrate 4-chloro-1-napthol (Sigma) after the final wash.

[3] = Immune response of mice immunised with rHev b 5/MBP (serum ELISA); format: in vivo, BALB/c mice; conditions: 20 μg/injection IP; serum ELISA against rHev b 5/MBP, MBP and NAL
Method: Monoclonal antibody production was carried out based on the method of Köhler and Milstein (Köhler et al., 1975) according to established protocols (Goding, 1996). Six to 8 week old female BALB/c mice were immunised intraperitoneally (IP) with 20 μg/injection of rHev b 5/MBP diluted in 200 μl of phosphate buffered saline (PBS). The first injection was given with an equal volume (200 μl) of Complete Freund's Adjuvant (Sigma, USA), and the second with 200 μl of Incomplete Freund's Adjuvant (Sigma, USA). The subsequent 4 immunisations were given in phosphate buffered saline (PBS) alone. The initial 2 immunisations were given at a 2 weekly interval; the remainder were given at monthly intervals, with 100 μl of whole blood being taken before the first immunisation and at 5 days following each immunisation (except for the first) to monitor the immune response. The blood was then centrifuged, the serum removed, and aliquotted at −20° C. for later analysis using enzyme linked immunosorbent assay (ELISA) as below. The final booster immunisation of 20 μg of rHev b 5/MBP in 200 μl PBS was given IP 3 days before the mouse was humanly killed and the spleen aseptically removed, macerated and then fused with 10^7 murine myeloma cells (X-63.Ag8 cell line, generous gift of Professor Jim Goding). […] Colour development was then observed and the plate read at […]. […]

B1: rHev b 5/MBP: recombinant Hev b 5 as maltose binding protein (MBP) fusion protein (protein)
chain: ASVEVESAATALPKNETPEVTKAEETKTEEPAAPPASEQETADATPEKEEPTAAPAEPEAPAPETEKAEEVEKIEKTEEPAPEADQTTPEEKPAEPEPVAEEEPKHETKETETEAPAAPAEGEKPAEEEKPITEAAETATTEVPVEKTEE
modifications: left off: large carriers; small tags and cut ends
Q: For B1, which Oligoclonal proliferative response ([1]; P1 T cell line) is on record?
A: 9.0 counts per minute × 10^−3

Q: And the Oligoclonal proliferative response ([1]; P2 T cell line)?
A: 5.7 counts per minute × 10^−3

Q: And the “oligoclonal proliferative response (in words)” value ([1]; three-week latex specific T cell lines)?
A: significantly higher than those of MBP alone

Q: And the “polyclonal PBMC response (in words)” value (PBMC)?
A: considerably less than those to LAL

Q: What about the “mitogenicity: stimulation of house dust mite specific T cell line” value [2] of the same molecule?
A: No reactivity

Q: And the “serum IgE reactivity” value (serum IgE)?
A: patients 1, 2, 3, 4 and 5 showed IgE reactivity

Q: And the “immune response of immunised mice” value [3]?
A: strong polyclonal immune response
